The source of these data is patent EP2848696A1, “Caspase-1 imaging probes” (Sanofi-Aventis Deutschland GmbH, priority 2013, dated 2015).

Common to all, as to experiment: Kinetic characterization (Km and kcat/Km of probe hydrolysis)
What all share (assay type): biochemical
What all share (conditions): other: caspase-1 added to increasing probe concentrations; initial velocities; nonlinear regression

Substrate in data set [1]: CCN(CC)c1ccc2cc(C(=O)NNC(=O)[C@H](CC(=O)O)NC(=O)[C@@H]3CCCN4C(=O)CC[C@H](NC(=O)c5cc6ccc(O)cc6oc5=O)C(=O)N34)c(=O)oc2c1
How it is done: (§1) Km and kcat/Km values were determined using standard methods (Kindermann et al., 2010; Rozman Pungercar et al., 2003). Caspase-1 was added to increasing concentrations of the probe and initial velocities of probe hydrolysis were calculated from the slopes of the lines of the fluorescence increase. Km and kcat (Vmax) values were then determined by nonlinear regression analysis using the Prism program.

Substrate in data set [2]: CCN(CC)c1ccc2cc(C(=O)NNC(=O)[C@H](CC(=O)O)NC(=O)[C@@H]3CCCN4C(=O)CC[C@H](NC(=O)c5cc6ccc(OC)cc6oc5=O)C(=O)N34)c(=O)oc2c1
As to the method:
as §1

Substrate in data set [3]: CCN(CC)c1ccc2cc(C(=O)NNC(=O)[C@H](CC(=O)O)NC(=O)[C@@H]3CCCN4C(=O)CC[C@H](NC(=O)c5cc6cc(Br)c(O)cc6oc5=O)C(=O)N34)c(=O)oc2c1
How it is done:
as §1

B1: Caspase-1 (Homo sapiens) (protein)
chain 1: NPAMPTSSGSEGNVKLCSLEEAQRIWKQKSAEIYPIMDKSSRTRLALIICNEEFDSIPRRTGAEVDITGMTMLLQNLGYSVDVKKNLTASDMTTELEAFAHRPEHKTSDSTFLVFMSHGIREGICGKKHSEQVPDILQLNAIFNMLNTKNCPSLKDKPKVIIIQACRGDSPGVVWFKD
chain 2: AIKKAHIEKDFIAFCSSTPDNVSWRHPTMGSVFIGRLIEHMQEYACSCDVEEIFRKVRFSFEQPDGRAQMPTTERVTLTRCFYLFPGH
With B1, the Km in data set [1] came out at 6.5 µM µM; in data set [2], 4.2 µM µM; in data set [3], 5.9 µM µM.
